Assay results taken from article PMC5686756 (2017).

Columns and labels:
[1] = target: T1, GB1-tagged ks-vFLIP (residues 1 to 188) (Kaposi's sarcoma-associated herpesvirus …, UniProt Q76RF1 1-188); assay: ITC; apparent Kd, competition in presence of spIKKγ (deionized water)
[2] = target: T1, GB1-tagged ks-vFLIP (residues 1 to 188); assay: ITC; in buffer

B1: IKKγ fragment encompassing residues 150 to 272 (domain or fragment)
chain: LGELQESQSRLEAATKECQALEGRARAASEQARQLESEREALQQQHSVQVDQLRMQGQSVEAALRMERQAASEEKRKLAQLQVAYHQLFQEYDNHIKSSVVGSERKRGMQLEDLKQQLQQAEE
**Q.** With B1 as the binder, how does the Kd [1] read?
**A.** 30.4 µM

**Q.** And the Kd [2]?
**A.** 0.2 µM
